From patent publication US20240000839A1 (CELLULAR BIOMEDICINE GROUP HK, published 2024)

Target: T1, TNFRSF17 (Q02223), i.e., BCMA (UniProt Q02223 1-184)
T1 construct: whole, on cells; also called B cell maturation antigen; CD269
T1 sequence (looked up): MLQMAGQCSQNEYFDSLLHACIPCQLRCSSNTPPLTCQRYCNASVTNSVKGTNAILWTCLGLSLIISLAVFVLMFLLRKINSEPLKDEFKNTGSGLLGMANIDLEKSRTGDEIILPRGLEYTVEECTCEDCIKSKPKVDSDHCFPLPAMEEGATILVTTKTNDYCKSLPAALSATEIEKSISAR
Experiment: flow cytometry, HEK293T membrane protein array, 20 ug/mL
Protocol: The light chain variable region of SEQ ID NO: 1 and the heavy chain variable region of SEQ ID NO: 2 were used to prepare a single chain antibody B20-scFv-rabFc, and membrane protein array experiment was performed.
20 ug/mL of B20-scFv-rabFc was added to HEK293T cell array transiently transfected with 5344 membrane proteins, respectively.

B1: B20-scFv-rabFc (Fc fusion)
scFv: DIQMTQSPSSLSASVGDRVTITCRASQGISNYLNWYQQKPGKAPKPLIYYTSNLQSGVPSRFSGSGSGTDYTLTISSLQPEDFATYYCMGQTISSYTFGQGTKLEIKGGGGSGGGGSGGGGSEVQLVESGGGLVQPGGSLRLSCAASGFTFSNFDMAWVRQAPGKGLVWVSSITTGADHAIYADSVKGRFTISRDNAKNTLYLQMNSLRAEDTAVYYCVRHGYYDGYHLFDYWGQGTLVTVSS
notes: not shown: rabbit Fc (rabFc)
B1: binds.
